# Laboratory results taken from patent US20160376339A1 (CURACLE, published 2016).
# Where no end group is shown, it is not given here.
# T1: Flag-PDK1 (UniProt O15530 1-556, limits assumed)
# T1 construct: Expressed in HEK293T cells for co-immunoprecipitation; not shown: Flag tag
# T1 sequence (looked up): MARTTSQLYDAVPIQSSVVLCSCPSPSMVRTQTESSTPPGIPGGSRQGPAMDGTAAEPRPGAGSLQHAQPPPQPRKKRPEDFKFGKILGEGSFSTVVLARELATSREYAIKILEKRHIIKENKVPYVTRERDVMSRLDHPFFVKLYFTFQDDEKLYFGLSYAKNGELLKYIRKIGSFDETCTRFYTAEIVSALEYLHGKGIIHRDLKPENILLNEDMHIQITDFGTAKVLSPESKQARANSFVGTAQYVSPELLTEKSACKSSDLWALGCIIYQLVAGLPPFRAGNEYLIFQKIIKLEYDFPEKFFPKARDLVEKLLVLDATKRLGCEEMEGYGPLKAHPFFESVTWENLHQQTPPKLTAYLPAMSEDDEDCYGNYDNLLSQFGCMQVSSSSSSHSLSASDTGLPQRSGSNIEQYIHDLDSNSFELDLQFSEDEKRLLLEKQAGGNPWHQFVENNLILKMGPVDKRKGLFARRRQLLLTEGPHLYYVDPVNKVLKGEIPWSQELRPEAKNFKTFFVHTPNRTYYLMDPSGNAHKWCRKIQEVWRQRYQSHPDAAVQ
# T2: His-tagged PH domain of PDK1 (purified) (UniProt O15530 409-556, limits assumed)
# T2 construct: domain: PH domain; Expressed in E. coli BL21 and purified on Ni2+-NTA-agarose; also called His-PH; His-tagged PDK1PH; not shown: His tag from vector pET32a
# T2 sequence (looked up): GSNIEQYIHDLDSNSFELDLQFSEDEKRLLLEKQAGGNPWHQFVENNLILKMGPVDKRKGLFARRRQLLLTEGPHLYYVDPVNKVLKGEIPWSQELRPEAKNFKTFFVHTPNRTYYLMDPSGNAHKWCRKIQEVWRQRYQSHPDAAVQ
# B1: AMIGO2^ΔCD (GFP-tagged AMIGO2 with residues 420-522 deleted) (receptor)
# chain: VCPTACICATDIVSCTNKNLSKVPGNLFRLIKRLDLSYNRIGLLDSEWIPVSFAKLNTLILRHNNITSISTGSFSTTPNLKCLDLSSNKLKTVKNAVFQELKVLEVLLLYNNHISYLDPSAFGGLSQLQKLYLSGNFLTQFPMDLYVGRFKLAELMFLDVSYNRIPSMPMHHINLVPGKQLRGIYLHGNPFVCDCSLYSLLVFWYRRHFSSVMDFKNDYTCRLWSDSRHSRQVLLLQDSFMNCSDSIINGSFRALGFIHEAQVGERLMVHCDSKTGNANTDFIWVGPDNRLLEPDKEMENFYVFHNGSLVIESPRFEDAGVYSCIAMNKQRLLNETVDVTINVSNFTVSRSHAHEAFNTAFTTLAACVASIVLVLLYLYL
# notes: The range 1-419 is derived from it; also called AMIGO2 without cytosolic Domain; not shown: EGFP tag
# B2: AMIGO2^457aa (GFP-tagged AMIGO2 truncated after residue 457) (receptor)
# chain: VCPTACICATDIVSCTNKNLSKVPGNLFRLIKRLDLSYNRIGLLDSEWIPVSFAKLNTLILRHNNITSISTGSFSTTPNLKCLDLSSNKLKTVKNAVFQELKVLEVLLLYNNHISYLDPSAFGGLSQLQKLYLSGNFLTQFPMDLYVGRFKLAELMFLDVSYNRIPSMPMHHINLVPGKQLRGIYLHGNPFVCDCSLYSLLVFWYRRHFSSVMDFKNDYTCRLWSDSRHSRQVLLLQDSFMNCSDSIINGSFRALGFIHEAQVGERLMVHCDSKTGNANTDFIWVGPDNRLLEPDKEMENFYVFHNGSLVIESPRFEDAGVYSCIAMNKQRLLNETVDVTINVSNFTVSRSHAHEAFNTAFTTLAACVASIVLVLLYLYLTPCPCKCKTKRQKNMLHQSNAHSSILSPGPASDASADE
# notes: The range 1-457 is read from the name and from the reverse primer with its stop codon; also called 457aa construct; not shown: EGFP tag
# B3: GST-tagged AMIGO2 420-464 (other)
# chain: TPCPCKCKTKRQKNMLHQSNAHSSILSPGPASDASADERKAGAGK
# modifications: cysteine pairing not given here; also: GST tag of pGEX 4T1 (sequence not given here)
# notes: Same forward primer and linker as GST-CD; not shown: glutathione S-transferase tag of vector pGEX 4T1
# B4: GST-tagged AMIGO2 420-454 (other)
# chain: TPCPCKCKTKRQKNMLHQSNAHSSILSPGPASDAS
# modifications: cysteine pairing not given here; also: GST tag of pGEX 4T1 (sequence not given here)
# notes: as for B3
# Columns and labels:
# Flag-PDK1 [1] = target: T1, Flag-PDK1; experiment: co-immunoprecipitation of GFP-tagged deletion mutants with Flag-PDK1
# Flag-PDK1 [2] = target: T1, Flag-PDK1; experiment: co-immunoprecipitation of GFP-tagged truncated AMIGO2 with Flag-PDK1
# From the text: The immunoprecipitated proteins were obtained by using protein A-agarose beads (Upstate Biotechnology), and detected by SDS-PAGE.
# [3] = target: T2, His-tagged PH domain of PDK1 (purified); experiment: Far-western analysis and GST pull-down with purified proteins
# Method: GST and His-fused proteins (1.5 mg/ml:1.5 mg/ml) were incubated for 2 h at 4° C., immobilized on Ni²⁺-NTA resin or glutathione-Sepharose 4B beads, and incubated for 30 min. Proteins were then eluted with elution buffer (25 mM NaPi, 300 mM NaCl, 5 mM β-mercaptoethanol, 500 mM imidazole, pH 7.5), western blot was performed with anti-GST and His antibodies.
# Briefly, purified GST-tagged proteins (1 μg) were loaded and separated, and then transferred to PVDF membranes. The membranes were denatured and renatured, incubated with purified His-tagged PH domain proteins (10 μg), and then detected with anti-His antibody.
Binder,binding result [3],other results
B1,,binding result (Flag-PDK1 [1]): no binding
B2,,binding result (Flag-PDK1 [2]): no binding
B3,no binding,
B4,no binding,
